Data as given in article PMC3524239, “Brain Transcriptome-Wide Screen for HIV-1 Nef Protein Interaction Partners Reveals Various Membrane-Associated Proteins” (PLoS ONE, 2012).
Where no end group is shown, it is not given here. The star is where a group is joined. FITC = O=C1OC2(c3ccc(O)cc3Oc3cc(O)ccc32)c2ccc(NC(=S)*)cc21

B1: fluoresceinyl-labeled peptide GPM6B(112-127) (peptide, UniProt Q13491-1 112-127, looked up)
peptide: {FITC}-TTSAVKELHGEFKTTA
notes: GPM6B cytoplasmic loop, residues 112-127; numbers count on: UniProtKB entry Q13491-1; also called FITC-labeled GPM6B peptide; source: synthetic peptide

Tests used:
[1] = biological target: fluoresceinyl-labeled peptide of PLP1; test: other fluorescence titration; 0.5 µM fluoresceinyl-labeled peptide titrated with recombinant Nef(2-210); compared with a buffer control titration; fit of a simple bimolecular model with ligand depletion
[2] = biological target: T1, recombinant HIV-1 SF2 Nef(2-210) protein (HIV-1 isolate SF2, UniProt P03407 2-210); test: as above; settings: both partners purified
T1 construct: Nef protein of HIV-1 isolate SF2, residues 2-210; also called purified Nef protein; source: recombinant, purified, prepared as described in [68]
T1 sequence (P03407 2-210): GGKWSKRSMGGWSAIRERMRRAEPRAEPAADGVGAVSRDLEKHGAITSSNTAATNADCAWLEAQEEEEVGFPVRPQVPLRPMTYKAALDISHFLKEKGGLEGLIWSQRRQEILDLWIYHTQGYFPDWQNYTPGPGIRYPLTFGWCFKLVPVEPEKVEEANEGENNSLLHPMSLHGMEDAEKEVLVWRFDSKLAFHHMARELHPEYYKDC

Row | Molecule | Kd [1] [nM] | Kd [2] [nM]
1 | recombinant HIV-1 SF2 Nef(2-210) protein (from UniProt P03407 2-210) (natural protein) | 710 | –
2 | B1 | – | 640 ± 60
